For the test, the target named is αvβ3 integrin on HeLa cells (human, UniProt P06756 31-1048; P05106 27-788). Nature of the test: cell-based or functional assay.

Where no end group is shown, it is not given here.

αvβ3 integrin on HeLa cells, sequence (P06756 31-1048, chain 1 of 2): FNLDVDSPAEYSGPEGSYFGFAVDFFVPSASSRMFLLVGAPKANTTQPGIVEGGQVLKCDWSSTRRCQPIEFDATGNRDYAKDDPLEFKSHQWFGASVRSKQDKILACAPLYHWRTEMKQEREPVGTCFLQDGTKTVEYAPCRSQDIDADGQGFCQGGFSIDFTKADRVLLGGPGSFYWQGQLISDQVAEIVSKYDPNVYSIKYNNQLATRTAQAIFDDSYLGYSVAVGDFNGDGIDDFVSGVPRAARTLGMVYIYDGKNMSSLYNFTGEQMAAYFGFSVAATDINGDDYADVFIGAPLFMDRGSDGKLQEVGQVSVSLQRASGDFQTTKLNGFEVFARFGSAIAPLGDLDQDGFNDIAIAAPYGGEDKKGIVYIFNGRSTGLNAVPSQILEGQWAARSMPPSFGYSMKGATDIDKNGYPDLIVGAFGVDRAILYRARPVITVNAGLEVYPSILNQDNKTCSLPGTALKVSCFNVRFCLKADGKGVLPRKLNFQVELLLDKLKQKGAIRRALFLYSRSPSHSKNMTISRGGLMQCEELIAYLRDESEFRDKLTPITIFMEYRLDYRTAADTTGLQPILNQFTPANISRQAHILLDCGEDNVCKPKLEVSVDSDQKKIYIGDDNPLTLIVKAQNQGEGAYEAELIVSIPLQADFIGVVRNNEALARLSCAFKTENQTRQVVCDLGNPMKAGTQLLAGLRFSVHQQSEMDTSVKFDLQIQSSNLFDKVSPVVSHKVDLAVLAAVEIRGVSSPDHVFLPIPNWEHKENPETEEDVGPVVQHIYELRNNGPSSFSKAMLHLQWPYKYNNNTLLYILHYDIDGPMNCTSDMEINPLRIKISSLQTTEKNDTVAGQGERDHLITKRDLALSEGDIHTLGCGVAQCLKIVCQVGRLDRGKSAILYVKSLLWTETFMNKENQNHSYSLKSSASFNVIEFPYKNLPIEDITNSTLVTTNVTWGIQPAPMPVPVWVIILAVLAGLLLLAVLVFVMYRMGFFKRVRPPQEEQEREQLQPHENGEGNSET
αvβ3 integrin on HeLa cells, sequence (P05106 27-788, chain 2 of 2): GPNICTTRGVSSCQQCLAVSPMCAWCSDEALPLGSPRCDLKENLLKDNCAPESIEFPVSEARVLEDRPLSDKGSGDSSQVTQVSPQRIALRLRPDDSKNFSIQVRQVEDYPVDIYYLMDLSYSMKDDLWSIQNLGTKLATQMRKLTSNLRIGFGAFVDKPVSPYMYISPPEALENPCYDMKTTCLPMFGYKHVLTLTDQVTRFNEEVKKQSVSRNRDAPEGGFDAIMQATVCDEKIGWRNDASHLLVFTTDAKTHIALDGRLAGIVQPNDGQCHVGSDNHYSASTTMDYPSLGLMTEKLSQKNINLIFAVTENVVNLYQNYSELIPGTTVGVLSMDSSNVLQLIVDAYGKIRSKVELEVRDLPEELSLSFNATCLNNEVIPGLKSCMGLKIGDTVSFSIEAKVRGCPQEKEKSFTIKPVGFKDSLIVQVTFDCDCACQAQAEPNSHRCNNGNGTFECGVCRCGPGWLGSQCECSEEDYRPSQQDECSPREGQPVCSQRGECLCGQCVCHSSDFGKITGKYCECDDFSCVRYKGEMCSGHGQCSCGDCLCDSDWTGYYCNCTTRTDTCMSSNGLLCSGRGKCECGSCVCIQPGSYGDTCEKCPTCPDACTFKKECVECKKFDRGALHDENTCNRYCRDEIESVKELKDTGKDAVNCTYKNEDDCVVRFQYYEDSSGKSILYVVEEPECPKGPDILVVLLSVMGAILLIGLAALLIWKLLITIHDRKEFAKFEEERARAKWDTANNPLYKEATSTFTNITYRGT

B1: Au-Cap-RGD nanoparticles (RGD nanoclusters): 5 nm gold nanoparticles modified with a mixture of Cap and Cap-RGD peptides (peptide)
peptide 1: Ac-CCVVVTGRGDSPSSK-OH
peptide 2: CCVVVT-OH
modifications: also: peptides attached to 5 nm gold nanoparticle via thiol/gold, mixture of Cap and Cap-RGD
In the case of B1, the IC50 level of cell adhesion inhibition, as equivalent RGD peptide (anti-adhesion assay, HeLa cells on vitronectin) amounted to 0.1 µM.

B2: DNA/PEI-Au-Cap-RGD-ASA polyplex: DNA/poly(ethylene imine) polyplex covalently modified with Au-Cap-RGD-ASA nanoparticles (other)
peptide 1: Ac-CCVVVTGRGDSPSSK-OH
peptide 2: CCVVVT
modifications: also: peptides on gold nanoparticle via thiol/gold, azidosalicylic acid added, residue not given here, crosslinked to PEI, bound to DNA/PEI polyplex
Take B2: the “Integrin Sensitivity Factor (ISF), ratio of the transfection level achieved with high and low αvβ3 density cells” value worked out at 60; the “luciferase expression in low αvβ3 density HeLa cells, against unmodified polyplexes” value worked out at 5.4 fold; the “transfection efficiency in high αvβ3 density HeLa cells, against unmodified polyplexes” value came out at 35 fold; the “transfection efficiency, HeLahigh against HeLalow” value was 7 fold.

B3: free RGD peptide (Ac-GCGYGRGDSPSSK-NH2) (peptide)
peptide: Ac-GCGYGRGDSPSSK-NH2
On to B3, for which the “IC50 concentration at which 50% of cell adhesion is inhibited (anti-adhesion assay, HeLa cells on vitronectin)” value is around 100 µM.

(Values after patent publication US20100266695A1 (University of California, published 2010).)
